T1: Sgt2_TPR (residues 93–229) (Saccharomyces cerevisiae, UniProt Q12118)
T1 construct: were added to Sgt2_TPR (residues 93–229) at 50 μM in the reaction cell; thioredoxin A (N, cleaved yes); hexahistidine tag (N, cleaved yes); made in house; host or cells: E. coli BL21 (DE3)
T1 sequence (Q12118 93-229): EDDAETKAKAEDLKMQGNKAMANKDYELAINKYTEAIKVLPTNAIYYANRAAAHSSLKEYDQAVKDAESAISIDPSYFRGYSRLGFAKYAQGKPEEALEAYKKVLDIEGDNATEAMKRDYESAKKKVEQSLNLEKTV

T2: Sgt2_TPR (93–229) (S. cerevisiae, UniProt Q12118 93-229)
T2 construct: Small glutamine-rich tetratricopeptide repeat-containing protein 2 (Sgt2), S. cerevisiae, TPR domain, residues 93-229; 15N-labelled for the NMR titrations; Cloned from synthetic cDNA into the BamHI/XhoI sites of a modified pET28; also called TPR domain of Sgt2; longer construct of Sgt2_TPR; not shown: thioredoxin A, N-terminal, cleaved; His6, N-terminal, cleaved
T2 sequence (looked up): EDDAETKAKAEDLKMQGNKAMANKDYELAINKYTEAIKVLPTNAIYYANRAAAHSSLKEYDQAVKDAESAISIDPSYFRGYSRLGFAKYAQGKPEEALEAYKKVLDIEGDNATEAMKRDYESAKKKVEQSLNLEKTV


Tests used:
[1] = molecular target: T1, Sgt2_TPR (residues 93–229); assay: ITC binding of peptides to Sgt2_TPR (93–229); set-up: species or system S. cerevisiae; details: 25°C, pH 6.0, from ΔG = −RT·lnKb and ΔG = ΔH − TΔS
[2] = test system: TPR domains; details: ref Scheufler et al., 2000; cited from earlier work
Description: The orientation of Hsp peptides in TPR structures varies between proteins. The conserved clamp mode of interactions is consistent, but there are some differences observed for the N-terminal parts of the peptides, which is not surprising given that the carboxylate clamp is the fixed point of attachment. The PTVEEVD peptide adopts an extended conformation within the Sgt2_TPR groove similar to that observed in the structure of the HOP TPR1/GPTIEEVD complex (Scheufler et al., [2000]). In contrast, structures of GPTIEEVD/Chip TPR [PDB: 3Q49 (Wang L. et al., [2011]) and PDB: 4KBQ Zhang et al., [2005 ...

[3] = molecular target: Ybr137wp (Saccharomyces cerevisiae) (UniProt P38276); assay: ITC; details: cited from earlier work
Chain of Ybr137wp (Saccharomyces cerevisiae) (P38276 whole entry): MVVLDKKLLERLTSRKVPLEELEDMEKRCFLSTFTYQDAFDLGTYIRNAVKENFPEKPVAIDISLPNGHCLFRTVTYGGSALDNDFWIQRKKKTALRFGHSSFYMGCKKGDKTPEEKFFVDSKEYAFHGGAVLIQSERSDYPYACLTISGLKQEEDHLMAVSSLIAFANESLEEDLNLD

[4] = molecular target: T2, Sgt2_TPR (93–229); assay: ITC; 20 injections of 2 uL of 500 uM peptide into 50 uM Sgt2_TPR (93-229) in the cell; 10 mM potassium phosphate pH 6.0, 100 mM NaCl, 250 uM TCEP, 25°C; details: both partners purified

Row | Molecule | Kd [4] | dH [4] | further results
1 | MEEVD [peptide corresponding to C-terminal of Hsp82; residues 705–709] | – | – | ΔS (reaction entropy) by ITC [1]: 10.9 cal/mol·deg
2 | EEVD | – | – | Fold reduction of affinity on trimming the peptide sequence to EEVD only [2]: at least 10 times
3 | Sgt2 TPR (from UniProt Q12118) | – | – | Kd [3]: 1380 nM
4 | MEEVD (Hsp82 (yeast Hsp90), C-terminal residues 705-709; the abstract and discussion call the parent Hsc82; also called C-terminal fragment of Hsp82; Hsc82 C-terminal peptide; source: synthetic peptide, bought: Alpha BioScience (Birmingham, UK)) [MEEVD peptide (C-terminus of Hsp82)] | 2950 ± 310 nM | -4.51 ± 0.03 kcal/mol | –
5 | SLEEDLNLD (Ybr137wp, yeast, C-terminal residues 171-179; also called Ybr137wp-derived peptide; source: synthetic peptide, bought: Alpha BioScience (Birmingham, UK)) [SLEEDLNLD peptide (C-terminus of Ybr137wp)] | 1530 ± 50 nM | -7.07 ± 0.99 kcal/mol | –
6 | PTVEEVD (Heat shock protein Ssa1 (yeast Hsp70), last seven amino acids; printed as residues 634-640; also called C-terminal peptide of Ssa1; Ssa1 derived PTVEEVD peptide; source: synthetic peptide, bought: Alpha BioScience (Birmingham, UK)) [PTVEEVD peptide (C-terminus of Ssa1)] | 9040 ± 50 nM | -6.72 ± 0.07 kcal/mol | –

From publication PMC5641545, “Structure and Interactions of the TPR Domain of Sgt2 with Yeast Chaperones and Ybr137wp” (Frontiers in Molecular Biosciences, 2017)
